For eight substances, IC50 results are on record in publication PMC11355449, “The Discovery and Characterization of a Potent DPP-IV Inhibitory Peptide from Oysters for the Treatment of Type 2 Diabetes Based on Computational and Experimental Studies” (Marine Drugs, 2024).

Where two headings read alike, the source gives them in different places. No end group written: not given here.

The target in assay [1] is T1, DPP-IV (Homo sapiens, UniProt P27487).
T1 construct: purchased Cayman Chemical 700210
T1 sequence (P27487 whole entry): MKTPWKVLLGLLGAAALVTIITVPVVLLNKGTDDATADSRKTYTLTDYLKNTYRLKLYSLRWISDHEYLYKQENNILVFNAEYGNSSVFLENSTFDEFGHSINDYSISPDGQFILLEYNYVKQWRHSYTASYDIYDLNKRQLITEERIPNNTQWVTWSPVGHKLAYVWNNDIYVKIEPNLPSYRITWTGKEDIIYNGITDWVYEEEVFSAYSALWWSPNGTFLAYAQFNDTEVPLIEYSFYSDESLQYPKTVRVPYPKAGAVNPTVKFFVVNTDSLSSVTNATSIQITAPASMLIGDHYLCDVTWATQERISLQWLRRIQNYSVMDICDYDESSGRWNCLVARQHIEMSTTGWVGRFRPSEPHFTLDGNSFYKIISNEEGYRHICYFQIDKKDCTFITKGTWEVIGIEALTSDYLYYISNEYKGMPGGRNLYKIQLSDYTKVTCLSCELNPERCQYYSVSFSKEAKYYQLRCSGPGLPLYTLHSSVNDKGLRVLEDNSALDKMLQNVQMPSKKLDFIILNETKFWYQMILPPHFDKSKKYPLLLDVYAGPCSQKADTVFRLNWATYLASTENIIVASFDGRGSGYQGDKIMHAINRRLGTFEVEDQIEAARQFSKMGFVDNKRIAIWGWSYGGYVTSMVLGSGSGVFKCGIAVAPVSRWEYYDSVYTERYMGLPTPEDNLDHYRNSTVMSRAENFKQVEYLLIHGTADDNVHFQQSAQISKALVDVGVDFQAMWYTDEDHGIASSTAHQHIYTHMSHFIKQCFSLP
The conditions noted are these: read-out: IC50, DPP-IV inhibition, cited from earlier work.

In assay [2] the target is T1, DPP-IV. The assay is described as follows: DPP-IV inhibitory activity in vitro (Cayman DPP (IV) inhibitor screening assay kit). The format is biochemical. The conditions noted are these: substrate Gly-Pro-AMC, 37 °C, 30 min, fluorescence 355/460 nm; dose–response range from 0.52 to 3.65 μM; drc package in R; read-out: IC50, DPP-IV inhibition. The protocol: Based on the results of the virtual screening, the optimal oyster peptide (key peptide sequences with potent DPP-IV inhibition) was selected and synthesized by Wuxi Maimertop Biotechnology Co., Ltd. (Wuxi, China). Then, the synthesized peptide was subjected to the DPP-IV inhibition activity verification. The DPP-IV inhibitory activity was determined following the instructions of commercial kits: a DPP (IV) inhibitor screening assay kit (700210 Cayman chemicals, USA). Briefly, 30 µL of assay buffer, 10 µL of DPP-IV enzyme, and 10 µL of peptide solution were added to a 96-well plate. Then, 50 µL of substrate (Gly-Pro-AMC, Sigma-Aldrich, Saint Louis, MO, USA) was added to start the reaction. After incubation at 37 °C for 30 min, the absorbance of the reaction mixture was detected under excitation and emission wavelengths of 355 nm and 460 nm, respectively. The DPP-IV inhibitory activity was calculated using the following formula:(1) DPP-IV Inhibition (%)=A− B/A×100% where A was the average fluorescence of 100% initial activity (blank) and B was the fluorescence of the sample.
The 50% inhibitory concentration (IC50) of DPP-IV enzyme activity was calculated using the drc package (https://cran.r-project.org/web/packages/drc/ accessed on 20 July 2024) in R 4.1.2.

Setting [3] is: food-derived peptides from silver carp proteins.
Where [4] appears, read: food-derived peptides from Sorghum bicolor.
Where [5] appears, read: food-derived peptides from sheep.

The IC50 is the point on the concentration scale where inhibition reaches its midpoint. “APGPAG [food-derived peptide from silver carp proteins]”: the IC50 with DPP-IV [1] (setting [3]) was 229 µM.

Consider “LPIIDI [food-derived peptide from silver carp proteins]”, for which the IC50 in the assay with DPP-IV [1] (setting [3]) was 105 µM. For LRGFGNPPT, the IC50 on DPP-IV [2] is 1.56 µM. For “LSICGEESFGTGSDHIR [food-derived peptide from Sorghum bicolor]”, the IC50 with DPP-IV [1] (setting [4]) was 73.5 µM. For the substance “MQEHFTCCR [food-derived peptide from sheep]”, the IC50 with DPP-IV [1] (setting [5]) is 215 µM. In the case of “QLRDIVDK [food-derived peptide from Sorghum bicolor]”, the IC50 with DPP-IV [1] (setting [4]) is 8.55 µM.

Regarding “RLYLHENK [food-derived peptide from sheep]”, the IC50 with DPP-IV [1] (setting [5]) is 166 µM. Take “SLGESLLQEDVEAHK [food-derived peptide from Sorghum bicolor]”: in the assay with DPP-IV [1] (setting [4]), the IC50 is 82.5 µM.
